The values below come from patent US20190127461A1 (ORDER MADE MEDICAL RESEARCH, published 2019).

Assay [1] addresses T1, ICD4 (region consisting of amino acids at positions 196 to 299 of MCT5) (human).
T1 construct: Immunogen and ELISA coating antigen
T1 chain: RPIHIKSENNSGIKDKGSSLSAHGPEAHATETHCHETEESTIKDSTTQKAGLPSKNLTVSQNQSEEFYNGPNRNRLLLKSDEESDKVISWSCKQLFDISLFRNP
Put plainly: ELISA, hybridoma culture supernatant on immobilized ICD4, POD-labeled anti-mouse immunoglobulin. As to the method: Blood samples which had been collected from mice through their tail veins and diluted 1/160,000 with PBS(-), or alternatively, culture supernatants collected from wells in which hybridomas were growing were analyzed for their antibody titer. ICD4 was diluted with PBS(-) and dispensed into 96-well ELISA plates (Nunc) in an amount of 50 ng per well, and immobilized onto the plate surface by being allowed to stand at room temperature for 1 hour. Then, after the plates were washed three times with 350 μL of TBS-T (25 mM Tris, 150 mM NaCl, 0.05% (v/v) Tween 20, pH 7.4), PBS-T containing 5% skimmed milk was dispensed in a volume of 300 μL per well to conduct blocking for 1 hour at room temperature. After washing with TBS-T, the diluted blood samples or the culture supernatants were dispensed into the ICD4-immobilized ELISA plates and reacted for 1 hour at room temperature. After washing with TBS-T, a 10,000-fold dilution of peroxidase (hereinafter abbreviated as POD)-labeled anti-mouse immunoglobulin antibody (BETHYL) was dispensed in a volume of 100 μL per well and reacted for 1 hour at room temperature. […] After the reaction was stopped with 1.5 N sulfuric acid, the plates were measured for absorbance at 490 nm with a plate reader (Molecular Devices). […]

The target of assay [2] is T2, MCT5 (Monocarboxylate transporter 5) (human, UniProt O15374 1-487).
T2 construct: Membrane transporter on intact human cancer cells: MCF7-MCT5 (overexpressing), and MDA-MB231, HCT116 and SK-BR3 (endogenous); also called native MCT5; MCT5 isoform 1
Put plainly: flow cytometry on intact HCT116 cells, Alexa 488-labeled secondary antibody; negative control is cells without IMI4C4a. As to the method:
HCT116 cells (which are human colorectal cancer cells) were cultured to reach 90% confluency. After being washed twice with PBS(-), the cells were collected with Accutase (Life Technologies) and suspended at 4×10⁵ cells in […] of PBS(-) containing 1% FBS. To this suspension, the antibody IMI4C4a was added at a final concentration of […] and reacted on ice for 60 minutes. For use as a control, a cell suspension free from the antibody IMI4C4a was prepared.

T2 sequence (O15374 whole entry, canonical isoform): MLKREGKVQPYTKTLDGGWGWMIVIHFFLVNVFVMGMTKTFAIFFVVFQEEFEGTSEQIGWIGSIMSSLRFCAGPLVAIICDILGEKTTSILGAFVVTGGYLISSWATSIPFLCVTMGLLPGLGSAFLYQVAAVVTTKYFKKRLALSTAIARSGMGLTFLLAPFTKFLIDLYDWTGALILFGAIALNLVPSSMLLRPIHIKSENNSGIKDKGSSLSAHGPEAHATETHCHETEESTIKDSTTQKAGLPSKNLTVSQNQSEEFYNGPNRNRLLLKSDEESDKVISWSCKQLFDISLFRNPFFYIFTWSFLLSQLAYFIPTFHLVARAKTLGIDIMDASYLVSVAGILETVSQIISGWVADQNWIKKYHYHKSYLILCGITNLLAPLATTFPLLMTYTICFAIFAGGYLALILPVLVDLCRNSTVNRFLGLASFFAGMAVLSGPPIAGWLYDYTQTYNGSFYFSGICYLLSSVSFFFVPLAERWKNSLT

B1: anti-MCT5 monoclonal antibody of clone No. IMI4C4a (antibody, V domains shown)
VH: EVQLQQSGAELVRPGALVKLSCKASGFNIKDYYMFWVKQRPEQGLEWIGWIDPENGNTIFDPKFQGKASITADTSSNTAYLQLSSLTSEDTAVYYCARMITTYYYAMDFWGQGTSVTVSS
VL: QLVLTQSSSASFSLGASAKLTCTLSSQHSTYTIEWYQQQPLKPPKYVMELKKDGSHSTGDGIPDRFSGSSSGADRYLSVSSIQPEDEAIYICGVGYTIKEQFVYVFGGGTK
notes: Mouse monoclonal antibody from a hybridoma, detected with anti-mouse IgG; also called antibody IMI4C4a; Mouse-Mouse hybridoma IMI4C4a
Regarding B1, the binding result in assay [1] and in assay [2] was “binds” each time.
